# Data reported in patent US20230055566A1.
# Target: human FGFR2b (beta)-Fc (human) (UniProt P21802)
# Experiment: SPR (Biacore), hFGFR2b-Fc immobilized on CM5 chip, antibody injected at 0-200 nM
substance,measurement,value
FPA144 (antibody),Kd,0.75 nM
same,koff,7.77e-05 s⁻¹
same,kon,104000 M⁻¹ s⁻¹
